Results reported in patent WO2005095457A2 (dated 2005).

Tests used:
[1] = molecular target: T1, human Oncostatin M (hOSM) (human, UniProt P13725 26-221); experiment: gp130 ELISA, hOSM
T1 construct: also called human OSM
T1 sequence: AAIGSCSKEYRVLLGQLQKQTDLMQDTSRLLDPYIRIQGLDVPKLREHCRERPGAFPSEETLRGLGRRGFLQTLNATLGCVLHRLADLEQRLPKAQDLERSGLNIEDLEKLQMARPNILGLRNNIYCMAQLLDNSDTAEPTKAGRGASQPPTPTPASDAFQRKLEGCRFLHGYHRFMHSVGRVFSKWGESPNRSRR

[2] = molecular target: T2, glycosylated human OSM (hOSM) produced in CHO cells (human) (UniProt P13725); experiment: competition ELISA: murine 10D3 titrated against 15E10-B3L2 (150 ng/ml, the competitor) on soluble glycosylated hOSM (50 ng/ml), capture by OM4-11.31, anti-human gamma chain detection
T2 sequence (chain, glycosylated (CHO cell glycosylated)): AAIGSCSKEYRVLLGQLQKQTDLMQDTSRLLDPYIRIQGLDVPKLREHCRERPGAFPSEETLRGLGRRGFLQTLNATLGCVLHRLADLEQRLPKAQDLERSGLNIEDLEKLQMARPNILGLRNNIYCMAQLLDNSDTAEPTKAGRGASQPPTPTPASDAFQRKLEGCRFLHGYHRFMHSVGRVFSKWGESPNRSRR

[3] = molecular target: T3, cynomolgus monkey OSM (cOSM) (cynomolgus monkey, UniProt P13725 26-221 (human entry), limits assumed); experiment: gp130 inhibition ELISA and KB cell assay
T3 construct: also called cynomolgus OSM
T3 chain: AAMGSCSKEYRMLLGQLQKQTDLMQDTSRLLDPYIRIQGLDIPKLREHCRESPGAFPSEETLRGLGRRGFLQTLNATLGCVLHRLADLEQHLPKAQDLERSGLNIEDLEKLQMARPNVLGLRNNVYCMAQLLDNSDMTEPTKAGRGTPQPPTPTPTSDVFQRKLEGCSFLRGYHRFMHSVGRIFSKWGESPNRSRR

[4] = molecular target: T3, cynomolgus monkey OSM (cOSM); experiment: gp130 inhibition ELISA, purified antibodies
[5] = molecular target: T3, cynomolgus monkey OSM (cOSM); experiment: gp130 inhibition ELISA, cynomolgus OSM

B1: 10D3 chimaeric antibody (antibody, human IgG1, V domains shown)
VH: EVQLQQSGPELVKPGASVKISCKASGYIFTDYNMDWVKQSHGKKLEWIGDINPNNGGTIDNQKFKDKATLTVDKSSSTAYMELRSLTSEDTAVYYCARGIYYYGSHYFDYWGQGTTLTVSS
VL: QIVLTQSPAIMSASPGEKVTMTCSATSSVSVMHWFQKKSGTSPKRWIYDTSKLASGVPTRFSGSGSGTSYSLTISSMEAEDTATYYCQQWSSNPLTFGSGTKLELK
notes: expressed in CHO; also called chimaeric 10D3; chimeric 10D3
[1]
  IC50: 0.032 µg/mL
[2]
  % inhibition of 15E10 at equimolarity (0.15μg/ml): 62.3%

B2: 15E10 chimaeric antibody (antibody, human IgG1, V domains shown)
VH: QVQLKQSGPGLVQPSQSLSITCTVSGFSLTNYGVHWVRQSPGKGLEWLGVIWRGGSTDYNAAFMSRLSITKDNSRSQVFFKMNSLQADDTAIYYCAKSPNSNFYWYFDVWGTGTTVTVSS
VL: QIVLTQSPTIMSASPGEKVTMTCSGSSSVSYMYWYQEKPGSSPRLLIEDTSNLASGVPARFSGSGSGTSYSLTISRMEAEDAATYYCQQWSSYPPTFGSGTKLEIK
notes: expressed in CHO; also called chimaeric 15E10; 15E10 chimaera
[3]
  binding result: binds

B3: humanised 15E10 antibody B3L2 (antibody, human IgG1, kappa, V domains shown)
VH: QVQLVESGGGVVQPGRSLRLSCAASGFSLTNYGVHWVRQAPGKGLEWVAVIWRGGSTDYNAAFMSRFTISKDNSKNTLYLQMNSLRAEDTAVYYCAKSPNSNFYWYFDVWGRGTLVTVSS
VL: EIVLTQSPATLSLSPGERATLSCSGSSSVSYMYWYQQKPGQAPRLLIEDTSNLASGIPARFSGSGSGTDYTLTISNLEPEDFAVYYCQQWSSYPPTFGQGTKLEIKR
notes: Human IgG1 wild type / kappa; purified from CHO; also called B3L2 wt; 15E10-B3L2
[4]
  binding result: binds

B4: 15E10 murine antibody (antibody, mouse IgG2a, V domains shown)
VH: QVQLKQSGPGLVQPSQSLSITCTVSGFSLTNYGVHWVRQSPGKGLEWLGVIWRGGSTDYNAAFMSRLSITKDNSRSQVFFKMNSLQADDTAIYYCAKSPNSNFYWYFDVWGTGTTVTVSS
VL: QIVLTQSPTIMSASPGEKVTMTCSGSSSVSYMYWYQEKPGSSPRLLIEDTSNLASGVPARFSGSGSGTSYSLTISRMEAEDAATYYCQQWSSYPPTFGSGTKLEIK
notes: also called clone 15E10; parent murine 15E10
[5]
  binding result: binds
